{
  "source": "the supplement of paper PMC9170038",
  "key": {"MS2 coat protein [1]": {"test_system": "MS2 coat protein", "experiment": "apparent KD of MS2 coat protein, switch OFF state (with FMN for OFF switches, without FMN for ON switches); designed switch direction (-1 OFF switch, 1 ON switch): -1; higher = weaker reporter binding", "conditions": "FMN input: 0 or 200 uM; Eterna round: R93 (includes R88 designs)", "in_short": "(§1)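 Designed RNA switches were transcribed on-chip from Illumina sequencing clusters. They were then titrated with SNAP-549-labelled MS2 coat protein (twofold steps, 0.7 or 1.5 nM to 3 µM; 0.8–1.5 h to 10–20 min per step) in 100 mM Tris-HCl pH 7.5, 80 mM KCl, 4 mM MgCl2, without or with constant ligand. Apparent KD is the per-design median of normalised cluster binding-curve fits.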"}, "MS2 coat protein [2]": {"test_system": "MS2 coat protein", "experiment": "apparent KD of MS2 coat protein, switch ON state; designed switch direction (-1 OFF switch, 1 ON switch): -1; higher = weaker reporter binding", "conditions": "FMN input: 0 or 200 uM; Eterna round: R93 (includes R88 designs)", "in_short": "as §1"}},
  "data": [
    {"sequence": "AACAUACAUGAGGAUCACCCAUGUCAGGAUAUGCCGGGUUAGAGCCAACUGAAAAAACGUAGAAGGGACGAAAA [Bilbo Confounded 7 - Jieux - Exclusion 1]", "values": [
      {"measurement": "apparent KD of MS2 coat protein", "setting": "MS2 coat protein [1]", "value": 0.0903, "unit": "µM"},
      {"measurement": "apparent KD of MS2 coat protein", "setting": "MS2 coat protein [2]", "value": 0.11, "unit": "µM"}
    ]},
    {"sequence": "AGAAAACAUGAGGAUCACCCAUGUGAGGAUAUGCAAAUAUAUACGAAAGAUUAUAAAAGCAGAAGGCACAAAAG [Meechl MS2 Ex1]", "values": [
      {"measurement": "apparent KD of MS2 coat protein", "setting": "MS2 coat protein [1]", "value": 0.0577, "unit": "µM"},
      {"measurement": "apparent KD of MS2 coat protein", "setting": "MS2 coat protein [2]", "value": 0.0358, "unit": "µM"}
    ]},
    {"sequence": "AAAAAGUGAGGAUAUACGCUGAGGAGUAGACACAACCAGGCGUAGAAGGCACAUGAGGAUCACCCAUGUCCAAA [EX4 Malc#11]", "values": [
      {"measurement": "apparent KD of MS2 coat protein", "setting": "MS2 coat protein [1]", "value": 0.0398, "unit": "µM"},
      {"measurement": "apparent KD of MS2 coat protein", "setting": "MS2 coat protein [2]", "value": 0.0261, "unit": "µM"}
    ]},
    {"sequence": "AAGAACUUAGGAUAUACAAGGAAGAAAGAAAAGAAAAGAAAACAUGAGGAUCACCCAUGUAGAAGGAAGUAGAA [EteRNA is fun!]", "values": [
      {"measurement": "apparent KD of MS2 coat protein", "setting": "MS2 coat protein [1]", "value": 0.0215, "unit": "µM"},
      {"measurement": "apparent KD of MS2 coat protein", "setting": "MS2 coat protein [2]", "value": 0.0409, "unit": "µM"}
    ]},
    {"sequence": "AAAUAGUUAGGAUAUACAUGAGGAUCACCCAUGUGGACUUAUGGAGAAUAAUUUAAUGGUAGAAGGGACUAAAA [EX2 Malc#26]", "values": [
      {"measurement": "apparent KD of MS2 coat protein", "setting": "MS2 coat protein [1]", "value": 0.0455, "unit": "µM"},
      {"measurement": "apparent KD of MS2 coat protein", "setting": "MS2 coat protein [2]", "value": 0.0543, "unit": "µM"}
    ]},
    {"sequence": "AAGAACUGAGGAUAUACAUGAGGAUCACCCAUGUAAAAGAAAGAGGGAAAAGAGAAAAGUAGAAGGCAGAAGAA [Berenice II]", "values": [
      {"measurement": "apparent KD of MS2 coat protein", "setting": "MS2 coat protein [1]", "value": 0.0324, "unit": "µM"},
      {"measurement": "apparent KD of MS2 coat protein", "setting": "MS2 coat protein [2]", "value": 0.0249, "unit": "µM"}
    ]},
    {"sequence": "AAAACUGGAGGAUAUACAUGAGGAUCACCCAUGUGUGGGUAGACUGUGUCGGCGUCAGGUAGAAGGCCACAAAA [Gilly Gone Silly 31 - Jieux - Exclusion 3]", "values": [
      {"measurement": "apparent KD of MS2 coat protein", "setting": "MS2 coat protein [1]", "value": 0.167, "unit": "µM"},
      {"measurement": "apparent KD of MS2 coat protein", "setting": "MS2 coat protein [2]", "value": 0.185, "unit": "µM"}
    ]},
    {"sequence": "AUAAUCCUAGGAUAUACAUGGAUAUACAUUCAUGUGGACCUACAUGAGGAUCACCCAUGUAGAAGGAGGAUGAA [Mat - Same state - Mayanna Mod - D138]", "values": [
      {"measurement": "apparent KD of MS2 coat protein", "setting": "MS2 coat protein [1]", "value": 0.0395, "unit": "µM"},
      {"measurement": "apparent KD of MS2 coat protein", "setting": "MS2 coat protein [2]", "value": 0.035, "unit": "µM"}
    ]},
    {"sequence": "AAAAAGUGAGGAUAUACAUGAGGAUCACCCAUGUGUAUAAAAAAAUACACAAAAGAAAGUAGAAGGCACUAAAA [Ex 3 Hot]", "values": [
      {"measurement": "apparent KD of MS2 coat protein", "setting": "MS2 coat protein [1]", "value": 0.0586, "unit": "µM"},
      {"measurement": "apparent KD of MS2 coat protein", "setting": "MS2 coat protein [2]", "value": 0.0211, "unit": "µM"}
    ]},
    {"sequence": "CUCUUGUCAGGAUAUCAAAGAAAAGAAAAGAAAGAAAAGAAUGAGAAGGGACAUGAGGAUCACCCAUGUAAGAA [EteRNA is fun!]", "values": [
      {"measurement": "apparent KD of MS2 coat protein", "setting": "MS2 coat protein [1]", "value": 0.0348, "unit": "µM"},
      {"measurement": "apparent KD of MS2 coat protein", "setting": "MS2 coat protein [2]", "value": 0.0321, "unit": "µM"}
    ]},
    {"sequence": "UAGAUACAUGAGGAUCACCCAUGUGAGGAUAUCGUUUGUACUAAUCUUUUAGUAUUUUCGAGAAGGCACAUAUA [Ex1Try2_Neo]", "values": [
      {"measurement": "apparent KD of MS2 coat protein", "setting": "MS2 coat protein [1]", "value": 0.143, "unit": "µM"},
      {"measurement": "apparent KD of MS2 coat protein", "setting": "MS2 coat protein [2]", "value": 0.0485, "unit": "µM"}
    ]},
    {"sequence": "CUCUAGUGAGGAUAUCGAAGAAAAGAAGAGAAAGAAAAGAACGAGAAGGCACAUGAGGAUCACCCAUGUAAGAA [EteRNA is fun!]", "values": [
      {"measurement": "apparent KD of MS2 coat protein", "setting": "MS2 coat protein [1]", "value": 0.049, "unit": "µM"},
      {"measurement": "apparent KD of MS2 coat protein", "setting": "MS2 coat protein [2]", "value": 0.0236, "unit": "µM"}
    ]},
    {"sequence": "AAAAAACAUGAGGAUCACCCAUGUCAGGAUAUGCUAUGGAAAUAAAAAAUAAAACAUAGCAGAAGGGACACCAA [Mat - Exclusion 1 - Eli mod - D48]", "values": [
      {"measurement": "apparent KD of MS2 coat protein", "setting": "MS2 coat protein [1]", "value": 0.055, "unit": "µM"},
      {"measurement": "apparent KD of MS2 coat protein", "setting": "MS2 coat protein [2]", "value": 0.031, "unit": "µM"}
    ]},
    {"sequence": "AGGGUACAUGAGGAUCACCCAUGUUAGGAUAUACAAAAGAAAAGAAAAGAAAGAAGAAGUAGAAGGGACAAGAA [Teti]", "values": [
      {"measurement": "apparent KD of MS2 coat protein", "setting": "MS2 coat protein [1]", "value": 0.0591, "unit": "µM"},
      {"measurement": "apparent KD of MS2 coat protein", "setting": "MS2 coat protein [2]", "value": 0.0455, "unit": "µM"}
    ]},
    {"sequence": "UCCUGACAUGAGGAUCACCCAUGUCAGGAUAUGCAUCUUAGGAAAAAAAAACUAAGAUGCAGAAGGGACAUGGG [Design 1: Super Stable]", "values": [
      {"measurement": "apparent KD of MS2 coat protein", "setting": "MS2 coat protein [1]", "value": 0.0363, "unit": "µM"},
      {"measurement": "apparent KD of MS2 coat protein", "setting": "MS2 coat protein [2]", "value": 0.0269, "unit": "µM"}
    ]},
    {"sequence": "AAGGUAUAAGGAUAUACAUAGAUACAGACACAUGUUCAAGUACAUGAGGAUCACCCAUGUAGAAGGUAUAUAUA [AJ 13]", "values": [
      {"measurement": "apparent KD of MS2 coat protein", "setting": "MS2 coat protein [1]", "value": 0.0267, "unit": "µM"},
      {"measurement": "apparent KD of MS2 coat protein", "setting": "MS2 coat protein [2]", "value": 0.0292, "unit": "µM"}
    ]},
    {"sequence": "AUAAUGCGAGGAUAUACAUGAGGAUCACCCAUGUAAAUAAAUAGGAGAGCCACAUUAAGUAGAAGGUGCAUUAA [JR_Exc003_Sub501]", "values": [
      {"measurement": "apparent KD of MS2 coat protein", "setting": "MS2 coat protein [1]", "value": 0.0847, "unit": "µM"},
      {"measurement": "apparent KD of MS2 coat protein", "setting": "MS2 coat protein [2]", "value": 0.0328, "unit": "µM"}
    ]},
    {"sequence": "AGUGAGUCAGGAUAUUAGUGAAGAAUAAAAGAAAUAACAACUAAGAAGGGACAUGAGGAUCACCCAUGUACACA [May 58]", "values": [
      {"measurement": "apparent KD of MS2 coat protein", "setting": "MS2 coat protein [1]", "value": 0.0209, "unit": "µM"},
      {"measurement": "apparent KD of MS2 coat protein", "setting": "MS2 coat protein [2]", "value": 0.026, "unit": "µM"}
    ]},
    {"sequence": "UGGGAGUCAGGAUAUACGAACAUGUCGCCAGAUGUCAAGGUACAUGAGGAUCACCCAUGUAGAAGGGAGGAGAA [salish99-Ex2-30(!)]", "values": [
      {"measurement": "apparent KD of MS2 coat protein", "setting": "MS2 coat protein [1]", "value": 0.0566, "unit": "µM"},
      {"measurement": "apparent KD of MS2 coat protein", "setting": "MS2 coat protein [2]", "value": 0.0971, "unit": "µM"}
    ]},
    {"sequence": "AACAGUACAGGAUAUACAUGAGGAUCACCCAUGUGGGAAAAAAGAUCGAGAGAUCAAUGUAGAAGGGUACUGGA [JL In the Red 03]", "values": [
      {"measurement": "apparent KD of MS2 coat protein", "setting": "MS2 coat protein [1]", "value": 0.427, "unit": "µM"},
      {"measurement": "apparent KD of MS2 coat protein", "setting": "MS2 coat protein [2]", "value": 0.161, "unit": "µM"}
    ]},
    {"sequence": "AGUUGGCGAGGAUAUACAUGAGGAUCACCCAUGUGAGAGAAAAAAGUGAAAAAGAAAAGUAGAAGGCGCUGACA [73%, Moding Norbert Elias, 3]", "values": [
      {"measurement": "apparent KD of MS2 coat protein", "setting": "MS2 coat protein [1]", "value": 0.195, "unit": "µM"},
      {"measurement": "apparent KD of MS2 coat protein", "setting": "MS2 coat protein [2]", "value": 0.0479, "unit": "µM"}
    ]},
    {"sequence": "ACAGUUACAGGAUAUACAUGGGAAAAUAAAAAUAAAAAACUACAUGAGGAUCACCCAUGUAGAAGGGUAACUGA [Ex2 Design 198: Random 13]", "values": [
      {"measurement": "apparent KD of MS2 coat protein", "setting": "MS2 coat protein [1]", "value": 0.0266, "unit": "µM"},
      {"measurement": "apparent KD of MS2 coat protein", "setting": "MS2 coat protein [2]", "value": 0.0775, "unit": "µM"}
    ]}
  ]
}
